Source: the supplement of paper PMC11246515
± gives the standard deviation of the averaged measurements.

Test: total protein half-life in vivo (active degradation + dilution); higher = more stable protein
[1] = E. coli NCM3722 delta-clpP delta-lon delta-hslV, growth: N-lim chemostat, doubling time 6 h
[2] = wild type E. coli NCM3722, growth: P-lim chemostat, doubling time 6 h
[3] = E. coli NCM3722 delta-clpP, growth: N-lim chemostat, doubling time 6 h
[4] = E. coli NCM3722 delta-hslV, growth: N-lim chemostat, doubling time 6 h
[5] = E. coli NCM3722 delta-lon, growth: N-lim chemostat, doubling time 6 h
[6] = E. coli NCM3722 delta-smpB, growth: N-lim chemostat, doubling time 6 h
[7] = wild type E. coli NCM3722, growth: C-lim chemostat, doubling time 3 h
[8] = wild type E. coli NCM3722, growth: C-lim chemostat, doubling time 6 h
[9] = wild type E. coli NCM3722, growth: C-lim chemostat, doubling time 12 h
[10] = wild type E. coli NCM3722, growth: N-lim chemostat, doubling time 6 h
[11] = wild type E. coli NCM3722, growth: N-lim chemostat, doubling time 12 h
[12] = wild type E. coli NCM3722, growth: P-lim chemostat, doubling time 12 h

Row | Sequence | total protein half-life in vivo [1] | total protein half-life in vivo [2] | total protein half-life in vivo [3] | total protein half-life in vivo [4] | total protein half-life in vivo [5] | total protein half-life in vivo [6] | total protein half-life in vivo [7] | total protein half-life in vivo [8] | total protein half-life in vivo [9] | total protein half-life in vivo [10] | total protein half-life in vivo [11] | total protein half-life in vivo [12]
1 | MSDKKKRSMAGLPWIAAMAFFMQALDATILNTALPAIAHSLNRSPLAMQSAIISYTLTVAMLIPVSGWLADRFGTRRIFTLAVSLFTLGSLACALSNSLPQLVVFRVIQGIGGAMMMPVARLALLRAYPRNELLPVLNFVAMPGLVGPILGPVLGGVLVTWATWHWIFLINIPIGIAGLLYARKHMPNFTTARRRFDITGFLLFGLSLVLFSSGIELFGEKIVASWIALTVIVTSIGLLLLYILHARRTPNPLISLDLFKTRTFSIGIVGNIATRLGTGCVPFLMPLMLQVGFGYQAFIAGCMMAPTALGSIIAKSMVTQVLRRLGYRHTLVGITVIIGLMIAQFSLQSPAMAIWMLILPLFILGMAMSTQFTAMNTITLADLTDDNASSGNSVLAVTQQLSISLGVAVSAAVLRVYEGMEGTTTVEQFHYTFITMGIITVASAAMFMLLKTTDGNNLIKRQRKSKPNRVPSESE | 6.64 h | 5.92 h |  |  |  |  |  |  |  |  |  | 
2 | MSDLHNESIFITGGGSGLGLALVERFIEEGAQVATLELSAAKVASLRQRFGEHILAVEGNVTCYADYQRAVDQILTRSGKLDCFIGNAGIWDHNASLVNTPAETLETGFHELFNVNVLGYLLGAKACAPALIASEGSMIFTLSNAAWYPGGGGPLYTASKHAATGLIRQLAYELAPKVRVNGVGPCGMASDLRGPQALGQSETSIMQSLTPEKIAAILPLQFFPQPADFTGPYVMLTSRRNNRALSGVMINADAGLAIRGIRHVAAGLDL [P0CI31] | 6.21 ± 0.63 h | 3.6 ± 0.55 h |  |  |  |  |  |  |  |  |  | 
3 | MSDNDELQQIAHLRREYTKGGLRRRDLPADPLTLFERWLSQACEAKLADPTAMVVATVDEHGQPYQRIVLLKHYDEKGMVFYTNLGSRKAHQIENNPRVSLLFPWHTLERQVMVIGKAERLSTLEVMKYFHSRPRDSQIGAWVSKQSSRISARGILESKFLELKQKFQQGEVPLPSFWGGFRVSLEQIEFWQGGEHRLHDRFLYQRENDAWKIDRLAP [P0AFI7] | 4.89 ± 0.34 h | 5.65 ± 0.12 h | 4.63 ± 0.17 h | 4.2 ± 0.047 h | 4.66 ± 0.076 h | 4.39 ± 0.58 h | 3.53 ± 0.6 h | 5.55 ± 0.32 h | 10.8 ± 1.7 h | 4.14 ± 0.077 h | 8.66 ± 0.44 h | 11.2 ± 0.29 h
4 | MSDQFDAKAFLKTVTSQPGVYRMYDAGGTVIYVGKAKDLKKRLSSYFRSNLASRKTEALVAQIQQIDVTVTHTETEALLLEHNYIKLYQPRYNVLLRDDKSYPFIFLSGDTHPRLAMHRGAKHAKGEYFGPFPNGYAVRETLALLQKIFPIRQCENSVYRNRSRPCLQYQIGRCLGPCVEGLVSEEEYAQQVEYVRLFLSGKDDQVLTQLISRMETASQNLEFEEAARIRDQIQAVRRVTEKQFVSNTGDDLDVIGVAFDAGMACVHVLFIRQGKVLGSRSYFPKVPGGTELSEVVETFVGQFYLQGSQMRTLPGEILLDFNLSDKTLLADSLSELAGRKINVQTKPRGDRARYLKLARTNAATALTSKLSQQSTVHQRLTALASVLKLPEVKRMECFDISHTMGEQTVASCVVFDANGPLRAEYRRYNITGITPGDDYAAMNQVLRRRYGKAIDDSKIPDVILIDGGKGQLAQAKNVFAELDVSWDKNHPLLLGVAKGADRKAGLETLFFEPEGEGFSLPPDSPALHVIQHIRDESHDHAIGGHRKKRAKVKNTSSLETIEGVGPKRRQMLLKYMGGLQGLRNASVEEIAKVPGISQGLAEKIFWSLKH [P0A8G0] | 6.54 ± 0.81 h | 4.61 ± 0.15 h | 5.14 ± 0.15 h | 4.77 ± 0.12 h | 6.421 ± 0.061 h | 4.75 ± 0.15 h | 2.84 ± 0.067 h | 5.1 ± 0.39 h | 7.83 ± 0.25 h | 4.84 ± 0.28 h | 8.62 ± 0.12 h | 8.48 ± 0.19 h
5 | MSDSNSRLVYSTETGRIDEPKAAPVRPKGDGVVRIQRQTSGRKGKGVCLITGVDLDDAELTKLAAELKKKCGCGGAVKDGVIEIQGDKRDLLKSLLEAKGMKVKLAGG | 5.12 ± 0.14 h | 3.05 h | 4.16 h | 3.29 ± 0.22 h | 4.11 ± 0.81 h | 3.04 ± 0.3 h | 2.76 ± 0.65 h | 4.11 ± 0.38 h | 5.29 ± 0.51 h | 3.15 h | 5.059 ± 0.042 h | 5.7 ± 0.6 h
6 | MSDSQTLVVKLGTSVLTGGSRRLNRAHIVELVRQCAQLHAAGHRIVIVTSGAIAAGREHLGYPELPATIASKQLLAAVGQSRLIQLWEQLFSIYGIHVGQMLLTRADMEDRERFLNARDTLRALLDNNIVPVINENDAVATAEIKVGDNDNLSALAAILAGADKLLLLTDQKGLYTADPRSNPQAELIKDVYGIDDALRAIAGDSVSGLGTGGMSTKLQAADVACRAGIDTIIAAGSKPGVIGDVMEGISVGTLFHAQATPLENRKRWIFGAPPAGEITVDEGATAAILERGSSLLPKGIKSVTGNFSRGEVIRICNLEGRDIAHGVSRYNSDALRRIAGHHSQEIDAILGYEYGPVAVHRDDMITR [P0A7B5] | 3.94 ± 0.49 h | 5.69 ± 0.71 h | 3.94 ± 0.43 h | 4.25 ± 0.076 h | 5.654 ± 0.012 h | 3.57 ± 0.05 h | 2.98 ± 0.13 h | 5.35 ± 0.17 h | 9.09 ± 0.098 h | 4.4 ± 0.31 h | 9.48 ± 1.3 h | 11.7 ± 0.25 h
7 | MSDTLLTLRDVHINFPARKNWLGKTTEHVHAINGIDLQIRRGETLGIVGESGCGKSTLAQLLMGMLQPSHGQYIRSGSQRIMQMVFQDPLSSLNPRLPVWRIITEPLWIAKRSSEQQRRALAEELAVQVGIRPEYLDRLPHAFSGGQRQRIAIARALSSQPDVIVLDEPTSALDISVQAQILNLLVTLQENHGLTYVLISHNVSVIRHMSDRVAVMYLGQIVELGDAQQVLTAPAHPYTRLLLDSLPAIDKPLEEEWALRKTDLPGNRTLPQGCFFYERCPLATHGCEVRQSLAIREDGRELRCWRAL |  |  | 3.45 h |  |  | 4.17 ± 0.074 h | 1.74 h | 4.55 h |  | 4.44 h | 6.31 ± 0.42 h | 
8 | MSDWNPSLYLHFSAERSRPAVELLARVPLENVEYVADLGCGPGNSTALLQQRWPAARITGIDSSPAMIAEARSALPDCQFVEADIRNWQPVQALDLIFANASLQWLPDHYELFPHLVSLLNPQGVLAVQMPDNWLEPTHVLMREVAWEQNYPDRGREPLAGVHAYYDILSEAGCEVDIWRTTYYHQMPSHQAIIDWVTATGLRPWLQDLTESEQQLFLKRYHQMLEEQYPLQENGQILLAFPRLFIVARRME | 3.89 ± 0.51 h | 5.89 ± 0.061 h | 5.9 ± 1.7 h | 4.82 ± 0.7 h | 6.54 ± 1.9 h | 3.62 ± 0.042 h | 3.29 ± 0.6 h |  | 9.97 ± 1.8 h | 4.14 ± 0.17 h | 4.96 h | 11 ± 0.27 h
